Measurements: PMC10206189, “Nanobody inhibitors of Plexin-B1 identify allostery in plexin–semaphorin interactions and signaling” (The Journal of Biological Chemistry, 2023)
Read-outs that look alike come from different tables or passages of the source.

T1: Recombinant Sema4D (1–677) with C-terminal 6xHis-tag (human, UniProt Q92854 22-677)
T1 construct: signal peptide in the construct; human Sema4D, residues 1-677 cloned in pcDNA5 and expressed as a secreted protein; also called human Sema4D; source: Expi293F, purified as the Plexin-B1 constructs (Excel HisTrap, Superdex 200)
T1 sequence (looked up): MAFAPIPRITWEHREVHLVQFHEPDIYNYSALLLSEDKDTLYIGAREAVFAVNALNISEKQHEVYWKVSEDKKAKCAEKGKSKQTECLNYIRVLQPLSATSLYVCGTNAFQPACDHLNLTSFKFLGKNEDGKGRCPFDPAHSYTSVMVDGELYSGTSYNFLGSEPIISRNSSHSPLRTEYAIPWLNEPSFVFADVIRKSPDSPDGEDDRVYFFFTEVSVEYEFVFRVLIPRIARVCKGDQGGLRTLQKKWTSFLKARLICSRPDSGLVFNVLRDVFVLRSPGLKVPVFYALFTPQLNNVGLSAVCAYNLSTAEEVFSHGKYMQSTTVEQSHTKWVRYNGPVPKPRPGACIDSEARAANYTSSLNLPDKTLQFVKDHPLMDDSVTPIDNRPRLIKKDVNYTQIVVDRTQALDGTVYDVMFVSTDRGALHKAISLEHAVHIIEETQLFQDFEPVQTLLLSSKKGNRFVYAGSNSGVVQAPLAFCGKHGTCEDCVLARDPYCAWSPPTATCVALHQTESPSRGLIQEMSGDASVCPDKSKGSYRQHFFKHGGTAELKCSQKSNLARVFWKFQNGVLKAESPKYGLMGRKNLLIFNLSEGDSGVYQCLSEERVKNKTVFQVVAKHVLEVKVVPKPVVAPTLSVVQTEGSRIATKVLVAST

B1: VHH13 (VHH)
VHH: QVQLQESGGGLVQAGGSLRLSCVASGFTFSSYAMGWYRRTPGNQQQLVATVSSSGTTYYGDSVKGRFTISRDNAKKTVYLQMNSLKPEDTAVYYCWRIGYWGQGTQVTVSA
B2: mouse Plexin-B1 (20–535)-6xHis (domain or fragment, UniProt Q8CJH3 20-535, looked up)
chain: LRSPLPAAFTANGTHLQHLARDPTTGTLYVGATNFLFQLSPGLQLEAVVSTGPVNDSRDCLPPVIPDECPQAQPTNNPNQLLLVSPEALVVCGSVHQGICELRSLGQIRQLLLRPERPGDTQYVAANDPAVSTVGLVAQGLVGEPLLFVGRGYTSRGVGGGIPPITTRALRPPDPQAAFSYEETAKLAVGRLSEYSHHFVSAFVRGASAYFLFLRRDLKAPSRAFRAYVSRVCLQDQHYYSYVELPLACQGGRYGLIQAAAVATSKEVARGDVLFAAFSSVAPPTVDWPLSASTGASGTSVLCAFPLDEVDQLANYTRDACYTREGRAENGTKVADIAYDVLSDCAQLPVDTPDAFPCGSDHTPSPMVSCVPLEATPILELPGVQLTAVAVTMEDGHTIAFLGDSQGQLHRVYLGPGRSAAPYSKQSIQPGSPVNRDLTFDGTFEHLYVATQTTLVKVPVAPCAQHLDCDSCLAHRDPYCGWCVLLGRCSRRSECSRDQGPEQWLWSFQPELGCLR
notes: mouse Plexin-B1, sema and PSI1 domains (D1-2); For crystallography the N-linked glycans were trimmed to a single N-acetylglucosamine with EndoH; also called mPlexin-B1; mouse Plexin-B1 domains 1 and 2; source: Expi293F, secreted, purified (Excel HisTrap, Superdex 200)
B3: biotinylated mouse Plexin-B1 (20–535)-Avi-6xHis (domain or fragment, UniProt Q8CJH3 20-535, looked up)
chain: B2 chain
modifications: biotin on the Avi-tag (BirA, in vitro)
notes: the Avi-tag stands between the C terminus of the fragment and the 6xHis-tag; source: Expi293F, secreted, purified as the unmodified version; biotinylated in vitro with BirA
B4: biotinylated mouse Plexin-B1 (20–535)-Avi-6xHis (domain or fragment, UniProt Q8CJH3 20-535, looked up)
chain: B2 chain
modifications: biotin on the Avi-tag (BirA, in vitro)
notes: as for B3
B5: VHH15-6xHis (VHH)
VHH: QVQLQESGGGLVQPGGSLRLSCAASGFRLDYYAIGWFRQAPGKEREGVLCISSSGGSINYADSVKGRFTISRDNAKNTVYLQMNSLKPEDTAVYYCGASSYNTQRAECYGMDYWGKGTQVTVSA
notes: VHH15; not shown: His6, C-terminal, kept
B6: VHH16 (VHH)
VHH: QVQLQESGGDLVQAGGSLRLSCEVSGSSFDIYHWAWYRQVPGKEREWVATAYSAGTTHYADSVKGRFTISRDNAKNTVYLQMNSLIPEDTAVYFCNANIYWGRGTQVTVSA
B7: VHH14-6xHis (VHH)
VHH: QVQLQESGGGLVQAGGSLRLSCAASGFTLGYYAIGWFRQAPGKEREEVSCINASGGSTFYEDSVKGRFTISRDNAKNTVFLQMNRLKPEDTAVYYCAAACEVVAVGYWGQGTQVTVSA
notes: VHH14
B8: VHH17 (VHH)
VHH: QVQLQESGGGLVQAGGSLRLSCVAAGIPFSAYAMSWYRQAPGKQRDHIATVSSGGTTYYADSVKGRFTISRDNAKNTVYLQMNSLKPEDTAVYFCNTEFALGNWGQGTQVTVSA
B9: human Plexin-B1 (20–535) (domain or fragment, UniProt O43157 20-535, looked up)
chain: LQPLPPTAFTPNGTYLQHLARDPTSGTLYLGATNFLFQLSPGLQLEATVSTGPVLDSRDCLPPVMPDECPQAQPTNNPNQLLLVSPGALVVCGSVHQGVCEQRRLGQLEQLLLRPERPGDTQYVAANDPAVSTVGLVAQGLAGEPLLFVGRGYTSRGVGGGIPPITTRALWPPDPQAAFSYEETAKLAVGRLSEYSHHFVSAFARGASAYFLFLRRDLQAQSRAFRAYVSRVCLRDQHYYSYVELPLACEGGRYGLIQAAAVATSREVAHGEVLFAAFSSAAPPTVGRPPSAAAGASGASALCAFPLDEVDRLANRTRDACYTREGRAEDGTEVAYIEYDVNSDCAQLPVDTLDAYPCGSDHTPSPMASRVPLEATPILEWPGIQLTAVAVTMEDGHTIAFLGDSQGQLHRVYLGPGSDGHPYSTQSIQQGSAVSRDLTFDGTFEHLYVMTQSTLLKVPVASCAQHLDCASCLAHRDPYCGWCVLLGRCSRRSECSRGQGPEQWLWSFQPELGCLQ
notes: human Plexin-B1, sema and PSI1 domains; also called hPlexin-B1; source: Expi293F, secreted, purified (Excel HisTrap, Superdex 200)

Assays:
[1] = biological target: B2
VHH15-Fc [2] = biological target: T2, VHH15-Fc (huarizo); assay: BLI; Octet RED384, 25 °C, 1× Kinetics buffer; purified VHH-Fc captured on Protein G biosensors, mouse Plexin-B1 in solution (VHH14-Fc: 10-3.75 nM, 1800 s association, 7200 s dissociation; VHH15-Fc: 160-10 nM, 600 s, 510 s); global 1:1 fit; settings: both partners purified
T2 construct: VHH cloned upstream of the Fc of human IgG1 (vector pHCMVi-Script HuIgG1 Fc); source: Expi293F, transfected; culture supernatant, and purified (HiTrap MabSelect, Superdex 200); not shown: Fc (human IgG1), C-terminal, kept

[3] = biological target: T1, Recombinant Sema4D (1–677) with …; assay: BLI; competition assay, Octet RED384, 1× Kinetics buffer; biotinylated murine Plexin-B1 on streptavidin biosensors, 10 μg/ml human Sema4D with or without 100 nM VHH-Fc bound beforehand; settings: both partners purified
VHH14-Fc [4] = biological target: T3, VHH14-Fc (huarizo); assay: BLI; first phase of the competition assay: 100 nM VHH-Fc on biotinylated murine Plexin-B1 held on streptavidin biosensors; by the order of the results the VHH-Fcs were still in supernatants; settings: one partner purified
T3 construct: VHH cloned upstream of the Fc of human IgG1 (vector pHCMVi-Script HuIgG1 Fc); source: Expi293F, transfected; culture supernatant, and purified (HiTrap MabSelect, Superdex 200); not shown: Fc (human IgG1), C-terminal, kept

VHH15-Fc [5] = biological target: T2, VHH15-Fc; assay: as above; settings: one partner purified
[6] = biological target: B2; assay: crystal structure; VHH15:mPlexin-B1 complex, EndoH-treated; 8% PEG 8000, 0.1 M sodium citrate pH 5.0, 1% dextran sulphate, 18 °C; settings: both partners purified
[7] = biological target: B2; assay: crystal structure; VHH14:VHH15:mPlexin-B1 ternary complex; 15% PEG 6000, 0.1 M sodium citrate pH 5.5, 3% dextran sulphate, 18 °C; settings: both partners purified
VHH14-Fc [8] = biological target: T3, VHH14-Fc; assay: BLI; supernatants containing VHH-Fcs tested against mouse and human Plexin-B1; settings: one partner purified
VHH15-Fc [9] = biological target: T2, VHH15-Fc; assay: as above; settings: one partner purified

Binder: B1
binding result [1]: binds

Binder: B2
Kd (VHH15-Fc [2]): 37.5 nM

Binder: B3
binding result [3]: binds

Binder: B4
binding result (VHH14-Fc [4]): binds
binding result (VHH15-Fc [5]): binds

Binder: B5
binding result [6]: binds

Binder: B6
binding result [1]: binds

Binder: B7
binding result [7]: binds

Binder: B8
binding result [1]: binds

Binder: B9
binding result (VHH14-Fc [8]): no binding
binding result (VHH15-Fc [9]): no binding
